US20250043302A1, “MUTATED HYDROXYPHENYLPYRUVATE DIOXYGENASE POLYPEPTIDE, AND CODING GENE AND USE THEREOF” (BEIJING DABEINONG BIOTECHNOLOGY CO., LTD., priority 2021, published 2025)

Experiments:
Type in all cases: in vivo
[1] = test system: Arabidopsis thaliana T1 plants; assay: Mesotrione tolerance of transgenic Arabidopsis thaliana T1 plants (spray, bleached leaf area grade, damage score); parameters: Scores: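 damage score 0-100 computed as Σ(N×S)/(T×M)×100 over grades 0-3 with higher meaning more damage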; settings: Arabidopsis thaliana T1 plants; for Grade 0 (classification and statistics of the grade of pesticide damage; number of plants) / Grade 1 (classification and statistics of the grade of pesticide damage; number of plants) / Grade 2 (classification and statistics of the grade of pesticide damage; number of plants) / Grade 3 (classification and statistics of the grade of pesticide damage; number of plants): 16 plants
Summary of the method: (§1)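 Read-out: per-plant damage grade 0–3 from proportion of bleached leaf area at 7 DAT (1 <50%, 2 >50%, 3 100%). Plants were T1 transformants, glufosinate-selected, plus wild-type CK, sprayed 18 days post-sowing. Rates: topramezone 25–200, isoxaflutole 35–280, mesotrione 52.5–420 g ai/ha.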

[2] = test system: Arabidopsis thaliana T1 plants; assay: Isoxaflutole tolerance of transgenic Arabidopsis thaliana T1 plants (spray, bleached leaf area grade, damage score); parameters: Scores (pesticide damage): scale not given here; settings: spray, Arabidopsis thaliana T1 plants; for Classification and statistics of the grade of pesticide damage: Grade 0 (number of plants) / Classification and statistics of the grade of pesticide damage: Grade 1 (number of plants) / Classification and statistics of the grade of pesticide damage: Grade 2 (number of plants) / Classification and statistics of the grade of pesticide damage: Grade 3 (number of plants): 16 plants
Summary of the method: as §1

[3] = test system: Arabidopsis thaliana T1 plants; assay: Topramezone tolerance of transgenic Arabidopsis thaliana T1 plants (spray, bleached leaf area grade, damage score); settings: 7 DAT, Table 4; for Classification and statistics of the grade of pesticide damage: Grade 0 / Classification and statistics of the grade of pesticide damage: Grade 1 / Classification and statistics of the grade of pesticide damage: Grade 2 / Classification and statistics of the grade of pesticide damage: Grade 3: number of plants; for Scores: pesticide damage score 0-100
Summary of the method: as §1

[4] = isoxaflutole 35 g ai/ha (0.5x field concentration)
[5] = isoxaflutole 70 g ai/ha (1x field concentration)

B1: SbHPPD-02: nucleotide sequence encoding wild-type Sorghum bicolor HPPD; vector DBN11758 (nucleic acid)
DNA: ATGCCGCCCACTCCAACAACTGCTGCTGCGACGGGAGCAGCTGTCGCCGCTGCTTCTGCTGAGCAGGCTGCCTTCAGGCTCGTCGGGCACAGAAATTTTGTTCGTGTAAATCCAAGGAGTGATAGGTTCCACACCTTGGCTTTTCACCACGTGGAGTTGTGGTGTGCTGATGCAGCCTCGGCAGCGGGGCGCTTCTCGTTTGGTCTCGGTGCTCCGCTCGCCGCAAGATCTGATCTTAGCACTGGAAACACAGCGCATGCCTCCCTGCTCCTGCGCTCTGGCGCGCTGGCGTTCCTCTTCACGGCGCCATATGCTCACGGCGCCGACGCCGCCACCGCGTCATTGCCGTCTTTTAGTGCAGCCGAAGCAAGAAGATTTGCAGCAGACCACGGCCTCGCCGTAAGGGCCGTGGCCTTACGTGTCGCCGATGCCGAAGATGCTTTCCGCGCCTCTGTAGCAGCTGGAGCAAGGCCAGCATTTGAACCTGTTGAATTGGGGTTAGGATTCCGTCTTGCAGAAGTTGAGCTTTATGGCGACGTTGTTTTGAGATACGTTTCATATCCTGATGACGCTGACGCTAGCTTCTTGCCTGGTTTTGTGGGGGTGACATCACCTGGGGCAGCAGATTATGGTCTCAGGCGGTTTGATCATATTGTTGGAAACGTTCCTGAACTCGCGCCGGCGGCAGCCTACTTCGCCGGTTTCACTGGGTTTCATGAATTTGCTGAATTCACAGCCGAGGATGTCGGCACCACCGAGAGTGGACTGAACTCCATGGTGCTGGCCAACAATGCAGAGAATGTCCTTCTTCCCTTGAATGAACCAGTTCATGGAACAAAAAGGCGTTCCCAAATACAAACATACCTCGACCATCATGGTGGACCAGGCGTTCAGCATATGGCTCTCGCTAGTGACGATGTTCTACGAACCCTGCGAGAGATGCAGGCGCGGTCTGCAATGGGAGGATTTGAGTTCATGGCACCTCCTGCCCCTGAATATTATGATGGTGTTCGGAGAAGGGCAGGTGATGTGCTAACTGAAGCTCAAATCAAGGAGTGCCAGGAGCTTGGCGTGCTGGTCGATCGGGATGATCAAGGTGTGCTTCTGCAGATTTTTACTAAACCAGTGGGTGACCGCCCCACGCTGTTCCTAGAGATCATCCAGAGAATAGGGTGCATGGAGAAGGACGAAAAAGGACAAGAGTACCAGAAGGGAGGTTGTGGCGGCTTTGGAAAAGGGAACTTCTCCCAATTATTCAAGTCAATTGAAGACTATGAAAAGAGTTTGGAGGCTAAGCAAGCTGCAGCCGCCCAGGGCAGCTGA
modifications: SbHPPD-02 Nucleotide Sequence
notes: vector DBN11758
Resistance evaluation ([1]; mesotrione 52.5 g ai/ha): Non-resistant | Scores ([1]; mesotrione 52.5 g ai/ha): 100 | Grade 0 (classification and statistics of the grade of pesticide damage; number of plants) ([1]; mesotrione 52.5 g ai/ha): 0 | Grade 1 (classification and statistics of the grade of pesticide damage; number of plants) ([1]; mesotrione 52.5 g ai/ha): 0 | Grade 2 (classification and statistics of the grade of pesticide damage; number of plants) ([1]; mesotrione 52.5 g ai/ha): 0 | Grade 3 (classification and statistics of the grade of pesticide damage; number of plants) ([1]; mesotrione 52.5 g ai/ha): 16 | Resistance evaluation ([1]; mesotrione 105 g ai/ha): Non-resistant | Scores ([1]; mesotrione 105 g ai/ha): 100 | Grade 0 (classification and statistics of the grade of pesticide damage; number of plants) ([1]; mesotrione 105 g ai/ha): 0 | Grade 1 (classification and statistics of the grade of pesticide damage; number of plants) ([1]; mesotrione 105 g ai/ha): 0 | Grade 2 (classification and statistics of the grade of pesticide damage; number of plants) ([1]; mesotrione 105 g ai/ha): 0 | Grade 3 (classification and statistics of the grade of pesticide damage; number of plants) ([1]; mesotrione 105 g ai/ha): 16 | Resistance evaluation [2, 4]: Non-resistant | Scores (pesticide damage) [2, 4]: 100 | Classification and statistics of the grade of pesticide damage: Grade 0 (number of plants) [2, 4]: 0 | Classification and statistics of the grade of pesticide damage: Grade 1 (number of plants) [2, 4]: 0 | Classification and statistics of the grade of pesticide damage: Grade 2 (number of plants) [2, 4]: 0 | Classification and statistics of the grade of pesticide damage: Grade 3 (number of plants) [2, 4]: 16 | Resistance evaluation [2, 5]: Non-resistant | Scores (pesticide damage) [2, 5]: 100 | Classification and statistics of the grade of pesticide damage: Grade 0 (number of plants) [2, 5]: 0 | Classification and statistics of the grade of pesticide damage: Grade 1 (number of plants) [2, 5]: 0 | Classification and statistics of the grade of pesticide damage: Grade 2 (number of plants) [2, 5]: 0 | Classification and statistics of the grade of pesticide damage: Grade 3 (number of plants) [2, 5]: 16 | Classification and statistics of the grade of pesticide damage: Grade 0 ([3]; topramezone 25 g ai/ha (1×)): 0 | Classification and statistics of the grade of pesticide damage: Grade 1 ([3]; topramezone 25 g ai/ha (1×)): 0 | Classification and statistics of the grade of pesticide damage: Grade 2 ([3]; topramezone 25 g ai/ha (1×)): 0 | Classification and statistics of the grade of pesticide damage: Grade 3 ([3]; topramezone 25 g ai/ha (1×)): 16 | Classification and statistics of the grade of pesticide damage: Grade 0 ([3]; topramezone 100 g ai/ha (4×)): 0 | Classification and statistics of the grade of pesticide damage: Grade 1 ([3]; topramezone 100 g ai/ha (4×)): 0 | Classification and statistics of the grade of pesticide damage: Grade 2 ([3]; topramezone 100 g ai/ha (4×)): 0 | Classification and statistics of the grade of pesticide damage: Grade 3 ([3]; topramezone 100 g ai/ha (4×)): 16 | Scores ([3]; topramezone 25 g ai/ha (1×)): 100 | Scores ([3]; topramezone 100 g ai/ha (4×)): 100 | Resistance evaluation ([3]; topramezone 25 g ai/ha (1×)): non-resistant (non-resistant plants (scores 68-100)) | Resistance evaluation ([3]; topramezone 100 g ai/ha (4×)): non-resistant (non-resistant plants (scores 68-100))
